Source: US20090074790A1, “Methods for measuring transforming growth factor beta (TGF-beta) receptor signaling activity and uses thereof” (priority 2004, published 2009)

Molecular target: TGFβ type I receptor (TβR-I) on human cells (human) (UniProt P36897)
Assay: cell-based or functional assay

TGFβ type I receptor (TβR-I) on human cells (human), sequence (P36897 34-503): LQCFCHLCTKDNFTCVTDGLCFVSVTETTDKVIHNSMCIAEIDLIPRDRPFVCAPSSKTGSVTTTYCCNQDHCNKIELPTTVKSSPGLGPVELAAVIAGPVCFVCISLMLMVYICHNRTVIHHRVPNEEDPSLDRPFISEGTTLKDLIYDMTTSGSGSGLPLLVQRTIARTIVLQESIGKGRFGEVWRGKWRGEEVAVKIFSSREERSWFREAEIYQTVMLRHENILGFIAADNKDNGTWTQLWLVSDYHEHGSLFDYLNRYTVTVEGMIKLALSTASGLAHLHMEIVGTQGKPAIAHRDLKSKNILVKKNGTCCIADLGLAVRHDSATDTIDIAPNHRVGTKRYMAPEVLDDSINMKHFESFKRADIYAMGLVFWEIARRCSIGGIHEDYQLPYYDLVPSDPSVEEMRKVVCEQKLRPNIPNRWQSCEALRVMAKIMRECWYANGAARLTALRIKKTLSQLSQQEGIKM

- growth inhibition of human keratinocytes: 5 pM
Substance: TGFβ (exogenous, added to human keratinocyte cultures) (ligand)
